Test in all cases: cell-based or functional assay
Assay [1] concerns the target T1, factor VIIIa A1/A3C1C2 dimer, H317A (human, UniProt P00451 20-391; P00451 1709-2351).
T1 chain 1: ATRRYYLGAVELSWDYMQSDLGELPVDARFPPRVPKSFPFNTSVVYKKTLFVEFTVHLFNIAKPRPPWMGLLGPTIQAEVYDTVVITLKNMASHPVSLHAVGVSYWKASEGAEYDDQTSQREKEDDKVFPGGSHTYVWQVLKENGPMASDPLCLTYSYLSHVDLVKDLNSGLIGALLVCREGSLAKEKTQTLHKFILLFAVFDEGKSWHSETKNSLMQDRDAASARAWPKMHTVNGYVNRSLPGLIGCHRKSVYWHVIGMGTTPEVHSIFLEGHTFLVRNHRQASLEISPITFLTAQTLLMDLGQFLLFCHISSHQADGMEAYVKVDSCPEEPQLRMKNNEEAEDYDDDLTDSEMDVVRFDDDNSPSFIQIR
T1 chain 2: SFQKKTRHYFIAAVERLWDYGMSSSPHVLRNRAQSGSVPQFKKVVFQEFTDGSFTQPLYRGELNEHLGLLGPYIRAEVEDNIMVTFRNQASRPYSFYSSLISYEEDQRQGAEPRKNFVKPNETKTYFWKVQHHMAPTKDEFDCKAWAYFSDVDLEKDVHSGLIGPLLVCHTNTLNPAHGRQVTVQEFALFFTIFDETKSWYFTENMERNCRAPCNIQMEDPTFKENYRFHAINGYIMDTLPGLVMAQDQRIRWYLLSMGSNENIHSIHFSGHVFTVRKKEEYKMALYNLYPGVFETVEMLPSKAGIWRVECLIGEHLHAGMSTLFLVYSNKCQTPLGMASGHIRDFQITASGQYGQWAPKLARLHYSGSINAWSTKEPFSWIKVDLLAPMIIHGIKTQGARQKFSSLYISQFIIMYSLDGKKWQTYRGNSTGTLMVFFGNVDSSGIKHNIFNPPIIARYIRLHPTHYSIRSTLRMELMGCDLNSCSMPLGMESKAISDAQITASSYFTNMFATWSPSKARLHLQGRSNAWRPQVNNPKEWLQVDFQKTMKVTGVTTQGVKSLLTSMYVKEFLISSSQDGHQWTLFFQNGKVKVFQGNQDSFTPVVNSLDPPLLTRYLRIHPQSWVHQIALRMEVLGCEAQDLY

Assay [2] has as its target T2, factor VIIIa A1/A3C1C2 dimer, S1791A (human, UniProt P00451 20-391; P00451 1709-2351).
T2 sequence 1: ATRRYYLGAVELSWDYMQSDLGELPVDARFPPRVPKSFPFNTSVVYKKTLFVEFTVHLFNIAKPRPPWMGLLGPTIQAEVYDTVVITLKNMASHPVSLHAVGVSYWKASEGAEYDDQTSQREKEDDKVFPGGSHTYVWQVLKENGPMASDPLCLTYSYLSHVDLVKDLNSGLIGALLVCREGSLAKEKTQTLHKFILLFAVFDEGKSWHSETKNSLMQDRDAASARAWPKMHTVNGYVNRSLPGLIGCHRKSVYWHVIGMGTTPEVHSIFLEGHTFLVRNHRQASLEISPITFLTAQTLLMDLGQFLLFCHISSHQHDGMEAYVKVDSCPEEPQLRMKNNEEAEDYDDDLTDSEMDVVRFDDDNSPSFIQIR
T2 sequence 2: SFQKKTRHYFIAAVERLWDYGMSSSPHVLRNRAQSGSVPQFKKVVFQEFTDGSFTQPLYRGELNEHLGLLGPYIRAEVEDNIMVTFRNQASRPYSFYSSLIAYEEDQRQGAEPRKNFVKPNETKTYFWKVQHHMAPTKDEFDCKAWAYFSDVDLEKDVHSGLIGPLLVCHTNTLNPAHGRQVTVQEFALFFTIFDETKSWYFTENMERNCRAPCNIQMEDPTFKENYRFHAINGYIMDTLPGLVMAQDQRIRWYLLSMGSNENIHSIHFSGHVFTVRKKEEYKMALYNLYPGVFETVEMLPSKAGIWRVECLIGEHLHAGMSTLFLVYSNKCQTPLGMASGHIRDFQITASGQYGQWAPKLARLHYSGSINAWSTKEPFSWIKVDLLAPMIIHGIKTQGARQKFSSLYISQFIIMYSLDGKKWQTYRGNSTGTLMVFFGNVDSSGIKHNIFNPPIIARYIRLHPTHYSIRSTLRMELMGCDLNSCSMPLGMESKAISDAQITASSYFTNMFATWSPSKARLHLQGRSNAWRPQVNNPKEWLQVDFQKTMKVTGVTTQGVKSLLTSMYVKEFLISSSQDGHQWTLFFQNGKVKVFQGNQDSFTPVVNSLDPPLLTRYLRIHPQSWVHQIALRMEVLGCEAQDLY

The target of assay [3] is T3, factor VIIIa A1/A3C1C2 dimer, S1949A (human, UniProt P00451 20-391; P00451 1709-2351).
T3 sequence 1: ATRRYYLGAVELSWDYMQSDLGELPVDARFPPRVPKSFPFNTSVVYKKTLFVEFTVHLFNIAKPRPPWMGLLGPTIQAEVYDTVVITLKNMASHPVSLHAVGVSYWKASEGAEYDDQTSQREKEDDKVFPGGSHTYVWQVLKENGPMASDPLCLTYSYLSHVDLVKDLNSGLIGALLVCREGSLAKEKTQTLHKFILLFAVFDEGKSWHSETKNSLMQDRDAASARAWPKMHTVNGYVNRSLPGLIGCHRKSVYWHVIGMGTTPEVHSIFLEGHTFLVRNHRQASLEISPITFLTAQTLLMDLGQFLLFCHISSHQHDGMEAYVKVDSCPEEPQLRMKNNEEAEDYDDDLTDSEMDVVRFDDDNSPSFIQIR
T3 sequence 2: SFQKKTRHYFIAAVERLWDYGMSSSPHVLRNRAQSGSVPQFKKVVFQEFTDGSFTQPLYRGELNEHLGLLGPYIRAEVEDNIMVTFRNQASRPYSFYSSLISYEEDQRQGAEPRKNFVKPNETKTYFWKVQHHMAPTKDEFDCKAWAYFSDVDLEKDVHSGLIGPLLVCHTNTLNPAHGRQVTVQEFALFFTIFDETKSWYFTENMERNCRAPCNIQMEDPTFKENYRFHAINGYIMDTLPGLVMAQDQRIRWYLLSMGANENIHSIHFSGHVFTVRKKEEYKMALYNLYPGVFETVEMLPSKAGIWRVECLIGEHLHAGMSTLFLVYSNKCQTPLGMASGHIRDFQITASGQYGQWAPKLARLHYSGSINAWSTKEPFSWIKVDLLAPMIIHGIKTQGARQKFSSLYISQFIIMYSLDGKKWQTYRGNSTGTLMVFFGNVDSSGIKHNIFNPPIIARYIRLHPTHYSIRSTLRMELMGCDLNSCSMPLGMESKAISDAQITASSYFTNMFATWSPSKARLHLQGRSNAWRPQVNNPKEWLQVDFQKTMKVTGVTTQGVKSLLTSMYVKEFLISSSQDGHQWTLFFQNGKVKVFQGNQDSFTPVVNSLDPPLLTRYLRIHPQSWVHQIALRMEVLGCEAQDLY

B1: factor VIIIa A2 subunit, wild type (other)
chain: SVAKKHPKTWVHYIAAEEEDWDYAPLVLAPDDRSYKSQYLNNGPQRIGRKYKKVRFMAYTDETFKTREAIQHESGILGPLLYGEVGDTLLIIFKNQASRPYNIYPHGITDVRPLYSRRLPKGVKHLKDFPILPGEIFKYKWTVTVEDGPTKSDPRCLTRYYSSFVNMERDLASGLIGPLLICYKESVDQRGNQIMSDKRNVILFSVFDENRSWYLTENIQRFLPNPAGVQLEDPEFQASNIMHSINGYVFDSLQLSVCLHEVAYWYILSIGAQTDFLSVFFSGYTFKHKMVYEDTLTLFPFSGETVFMSMENPGLWILGCHNSDFRNRGMTALLKVSSCDKNTGDYYEDSYEDISAYLLSKNNAIEPR
B1: the “Factor VIIIa decay rate relative to wild type, FIXa (+)” value in assay [1] is 1.28 relative to wild type; in assay [2], 1.85 relative to wild type; in assay [3], 1.14 relative to wild type. For the same molecule, the entries for the “Factor VIIIa decay rate, FIXa (+)” value in assay [1], in assay [2] and in assay [3] were 0.0145 min⁻¹, 0.0208 min⁻¹ and 0.0129 min⁻¹, respectively.

The record behind these values is US20090118184A1 (UNIVERSITY OF ROCHESTER, published 2009).
